# Data as given in patent US10064928B2, “Peptides and combination of peptides for use in immunotherapy against CLL and other cancers” (IMMATICS BIOTECHNOLOGIES GMBH, priority 2015, dated 2018).
# Molecular target: HLA-A*02:01 (Homo sapiens, UniProt P04439, D140Y/D185E/D98H/E176V/E277Q/G131W/G231S/I119V/I121R/I166T/I218V/L300P/L318F/N151K/N90K/P208A/P217A/Q86G/Q94H/R138H/R169H/T345S)
# Test: MHC binding assay (UV-ligand exchange, beta2m ELISA)
# Details: binding of HLA-class I restricted peptides to HLA-A*02:01, β2m ELISA
# Procedure, shortened: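 Binding capacity is expressed as the yield of UV-mediated ligand exchange, reflecting how well each peptide stabilizes peptide-receptive MHC. Stabilized complexes are read out by anti-β2m HRP ELISA (450 nm) after streptavidin capture, with refolded MLA-001 monomer standards for quantitation.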
row,Substance,"Peptide Exchange (MHC class I binding score, peptide exchange yield)"
1,308 (SLYDVSRMYV; listed as Homo sapiens) [compound 308],“++++” (≥75% = ++++)
2,357 (FLIQEIKTL; listed as Homo sapiens) [compound 357],“+++” (≥50 = +++)
3,381 (YLLEENKIKL; listed as Homo sapiens) [compound 381],“+++” (≥50 = +++)
4,46 (YIIDSAQAV; listed as Homo sapiens) [compound 46],“+++” (≥50 = +++)
5,12 (ALGEDEITL; listed as Homo sapiens) [compound 12],“+++” (≥50 = +++)
6,121 (RLYEITIEV; listed as Homo sapiens) [compound 121],“++++” (≥75% = ++++)
7,173 (TVIENIHTI; listed as Homo sapiens) [compound 173],“++” (≥20% = ++)
8,385 (YTIPLAIKL; listed as Homo sapiens) [compound 385],“+++” (≥50 = +++)
9,372 (SLFGPLPGPGPALV; listed as Homo sapiens) [compound 372],“+++” (≥50 = +++)
10,279 (YMAPEVVEA; listed as Homo sapiens) [compound 279],“+++” (≥50 = +++)
11,263 (SQWEDIHVV; listed as Homo sapiens) [compound 263],“+++” (≥50 = +++)
12,84 (GVMDVNTAL; listed as Homo sapiens) [compound 84],“++” (≥20% = ++)
13,185 (VMDDQRDLI; listed as Homo sapiens) [compound 185],“++” (≥20% = ++)
14,346 (VLVQVSPSL; listed as Homo sapiens) [compound 346],“+++” (≥50 = +++)
15,91 (ILDLNTYNV; listed as Homo sapiens) [compound 91],“+++” (≥50 = +++)
16,349 (ALATHILSL; listed as Homo sapiens) [compound 349],“+++” (≥50 = +++)
17,238 (GLVETELQL; listed as Homo sapiens) [compound 238],“+++” (≥50 = +++)
18,149 (SLDNGGYYI; listed as Homo sapiens) [compound 149],“+++” (≥50 = +++)
19,166 (TLDPNQVSL; listed as Homo sapiens) [compound 166],“++” (≥20% = ++)
20,365 (LISPLLLPV; listed as Homo sapiens) [compound 365],“+++” (≥50 = +++)
21,315 (LVYEAPETV; listed as Homo sapiens) [compound 315],“+++” (≥50 = +++)
22,134 (MLLEHGITLV; listed as Homo sapiens) [compound 134],“++++” (≥75% = ++++)
23,325 (TLENGVPCV; listed as Homo sapiens) [compound 325],“+++” (≥50 = +++)
24,333 (VTLEFPQLIRV; listed as Homo sapiens) [compound 333],“+++” (≥50 = +++)
25,10 (FVYGESVEL; listed as Homo sapiens) [compound 10],“+++” (≥50 = +++)
26,174 (VLAELPIIVV; listed as Homo sapiens) [compound 174],“+++” (≥50 = +++)
27,218 (ALGEEWKGYVV; listed as Homo sapiens) [compound 218],“++” (≥20% = ++)
28,328 (VLLPQETAEIHL; listed as Homo sapiens) [compound 328],“++++” (≥75% = ++++)
29,221 (ALVSTIIMV; listed as Homo sapiens) [compound 221],“+” (≥10% = +)
30,160 (SLSFLVPSL; listed as Homo sapiens) [compound 160],“+++” (≥50 = +++)

# Other lines, results leading:
row,"Peptide Exchange (MHC class I binding score, peptide exchange yield)",Substance
1,“+++” (≥50 = +++),71 (GLKHDIARV; listed as Homo sapiens) [compound 71]
2,“+++” (≥50 = +++),83 (GQGEVLVYV; listed as Homo sapiens) [compound 83]
3,“+++” (≥50 = +++),205 (GLSQANFTL; listed as Homo sapiens) [compound 205]
4,“+++” (≥50 = +++),108 (VIYTLIHYI; listed as Homo sapiens) [compound 108]
5,“+++” (≥50 = +++),251 (LLYDNVPGA; listed as Homo sapiens) [compound 251]
6,“+++” (≥50 = +++),169 (TLLLGLTEV; listed as Homo sapiens) [compound 169]
7,“+++” (≥50 = +++),111 (KLWNVAAPLYL; listed as Homo sapiens) [compound 111]
8,“++” (≥20% = ++),373 (TLLADQGEIRV; listed as Homo sapiens) [compound 373]
9,“+++” (≥50 = +++),270 (TVLPVPPLSV; listed as Homo sapiens) [compound 270]
10,“++++” (≥75% = ++++),16 (ALPGGAAVAAV; listed as Homo sapiens) [compound 16]
11,“+++” (≥50 = +++),331 (VLWELAHLPTL; listed as Homo sapiens) [compound 331]
12,“+++” (≥50 = +++),231 (FLYIRQLAI; listed as Homo sapiens) [compound 231]
13,“+++” (≥50 = +++),249 (LLPTGVFQV; listed as Homo sapiens) [compound 249]
14,“+++” (≥50 = +++),27 (AVLGLVWLL; listed as Homo sapiens) [compound 27]
15,“+++” (≥50 = +++),127 (LLPTAPTTV; listed as Homo sapiens) [compound 127]
16,“++” (≥20% = ++),103 (KLGGTPAPA; listed as Homo sapiens) [compound 103]
17,“+++” (≥50 = +++),254 (QLIPKLIFL; listed as Homo sapiens) [compound 254]
18,“+++” (≥50 = +++),66 (SLAGGLDDMKA; listed as Homo sapiens) [compound 66]
19,“+++” (≥50 = +++),239 (ILAGEMLSV; listed as Homo sapiens) [compound 239]

row,"Peptide Exchange (MHC class I binding score, peptide exchange yield)",Substance
1,“+++” (≥50 = +++),291 (ILLNEDDLVTI; listed as Homo sapiens) [compound 291]
2,“+++” (≥50 = +++),236 (GLLESGRHYL; listed as Homo sapiens) [compound 236]
3,“+++” (≥50 = +++),143 (QLLDTYFTL; listed as Homo sapiens) [compound 143]
4,“+++” (≥50 = +++),137 (NLIKTVIKL; listed as Homo sapiens) [compound 137]
5,“+++” (≥50 = +++),138 (NLLDIDAPVTV; listed as Homo sapiens) [compound 138]
6,“+++” (≥50 = +++),377 (VVDGTCVAV; listed as Homo sapiens) [compound 377]
7,“+++” (≥50 = +++),146 (SIIEGPIIKL; listed as Homo sapiens) [compound 146]
8,“++” (≥20% = ++),165 (TLDDDLDTV; listed as Homo sapiens) [compound 165]
9,“++” (≥20% = ++),188 (VMGDIPAAV; listed as Homo sapiens) [compound 188]
10,“++++” (≥75% = ++++),384 (YMIGSEVGNYL; listed as Homo sapiens) [compound 384]
11,“+++” (≥50 = +++),191 (YIFDGSDGGV; listed as Homo sapiens) [compound 191]
12,“++” (≥20% = ++),284 (LLSAAEPVPA; listed as Homo sapiens) [compound 284]
13,“+++” (≥50 = +++),235 (GLDDLLLFL; listed as Homo sapiens) [compound 235]
14,“+++” (≥50 = +++),45 (FLPELPADLEA; listed as Homo sapiens) [compound 45]
15,“+++” (≥50 = +++),126 (LLPEGGITAI; listed as Homo sapiens) [compound 126]
16,“+++” (≥50 = +++),228 (FLGGLSPGV; listed as Homo sapiens) [compound 228]
17,“+++” (≥50 = +++),215 (VMQDIVYKL; listed as Homo sapiens) [compound 215]
18,“++” (≥20% = ++),266 (TLLDQLDTQL; listed as Homo sapiens) [compound 266]
